Patent US20260159606A1 (VIB VZW, published 2026)

T1: hPIV-1 hemagglutinin-neuraminidase (HN), expressed on transfected HEK293T cells (human parainfluenza virus 1 (hPIV-1), UniProt P16071 1-575)
T1 construct: whole, on cells; also called hPIV-1 HN; HN1
T1 sequence: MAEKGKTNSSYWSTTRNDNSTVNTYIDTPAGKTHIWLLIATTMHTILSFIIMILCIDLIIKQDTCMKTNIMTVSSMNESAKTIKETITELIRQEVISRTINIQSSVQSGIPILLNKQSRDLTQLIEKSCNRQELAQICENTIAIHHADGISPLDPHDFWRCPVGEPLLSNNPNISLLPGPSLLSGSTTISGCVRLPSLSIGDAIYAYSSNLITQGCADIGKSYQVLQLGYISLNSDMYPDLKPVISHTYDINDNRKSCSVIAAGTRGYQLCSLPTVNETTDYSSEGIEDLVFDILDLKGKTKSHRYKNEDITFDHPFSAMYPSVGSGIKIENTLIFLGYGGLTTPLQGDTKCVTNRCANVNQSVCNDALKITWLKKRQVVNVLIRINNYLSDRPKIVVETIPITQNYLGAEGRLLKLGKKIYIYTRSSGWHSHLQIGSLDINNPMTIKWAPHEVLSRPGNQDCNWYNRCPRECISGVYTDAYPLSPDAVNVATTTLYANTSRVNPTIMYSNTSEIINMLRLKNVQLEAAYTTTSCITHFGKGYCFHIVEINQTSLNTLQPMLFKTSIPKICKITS

T2: hPIV-3 hemagglutinin-neuraminidase (HN), expressed on transfected HEK293T cells (human parainfluenza virus 3 (hPIV-3), UniProt P08492 1-572)
T2 chain: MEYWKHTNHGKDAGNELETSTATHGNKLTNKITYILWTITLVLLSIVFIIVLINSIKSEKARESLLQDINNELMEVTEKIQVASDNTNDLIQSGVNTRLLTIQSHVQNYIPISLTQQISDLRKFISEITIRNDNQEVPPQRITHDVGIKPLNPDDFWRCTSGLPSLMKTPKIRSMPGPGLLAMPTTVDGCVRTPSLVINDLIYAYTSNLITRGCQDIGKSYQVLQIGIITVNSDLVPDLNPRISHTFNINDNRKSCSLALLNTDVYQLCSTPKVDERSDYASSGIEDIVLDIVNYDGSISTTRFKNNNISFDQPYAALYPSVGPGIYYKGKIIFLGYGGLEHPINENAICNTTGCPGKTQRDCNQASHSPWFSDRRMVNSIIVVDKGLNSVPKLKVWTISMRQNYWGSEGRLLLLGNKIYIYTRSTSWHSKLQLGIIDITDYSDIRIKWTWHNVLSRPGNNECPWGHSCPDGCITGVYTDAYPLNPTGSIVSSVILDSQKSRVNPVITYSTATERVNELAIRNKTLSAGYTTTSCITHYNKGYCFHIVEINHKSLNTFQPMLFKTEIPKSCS

T3: D275N- and R277T-mutant hPIV-3 HN, expressed on transfected HEK293T cells (human parainfluenza virus 3 (hPIV-3), UniProt P08492 1-572)
T3 construct: also called mut HN3
T3 chain: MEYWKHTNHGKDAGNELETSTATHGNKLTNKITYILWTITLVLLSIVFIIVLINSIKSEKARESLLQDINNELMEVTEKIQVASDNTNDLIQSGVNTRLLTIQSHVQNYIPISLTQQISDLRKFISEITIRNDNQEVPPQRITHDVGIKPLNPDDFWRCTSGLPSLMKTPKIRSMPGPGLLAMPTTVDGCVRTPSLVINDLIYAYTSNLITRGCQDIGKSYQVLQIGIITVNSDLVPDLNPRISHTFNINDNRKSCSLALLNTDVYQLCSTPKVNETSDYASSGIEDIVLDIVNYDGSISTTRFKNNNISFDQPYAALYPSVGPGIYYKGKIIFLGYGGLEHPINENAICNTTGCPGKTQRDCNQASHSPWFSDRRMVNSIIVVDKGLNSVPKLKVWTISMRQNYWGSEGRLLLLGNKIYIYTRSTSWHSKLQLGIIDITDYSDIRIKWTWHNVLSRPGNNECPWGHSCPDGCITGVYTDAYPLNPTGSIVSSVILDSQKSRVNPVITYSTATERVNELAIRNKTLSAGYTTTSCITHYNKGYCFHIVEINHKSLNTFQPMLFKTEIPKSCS

T4: HN of hPIV-1-GFP virus (on virions and on hPIV-1-infected cells) (human parainfluenza virus 1 (hPIV-1), UniProt P16071 1-575)
T4 sequence: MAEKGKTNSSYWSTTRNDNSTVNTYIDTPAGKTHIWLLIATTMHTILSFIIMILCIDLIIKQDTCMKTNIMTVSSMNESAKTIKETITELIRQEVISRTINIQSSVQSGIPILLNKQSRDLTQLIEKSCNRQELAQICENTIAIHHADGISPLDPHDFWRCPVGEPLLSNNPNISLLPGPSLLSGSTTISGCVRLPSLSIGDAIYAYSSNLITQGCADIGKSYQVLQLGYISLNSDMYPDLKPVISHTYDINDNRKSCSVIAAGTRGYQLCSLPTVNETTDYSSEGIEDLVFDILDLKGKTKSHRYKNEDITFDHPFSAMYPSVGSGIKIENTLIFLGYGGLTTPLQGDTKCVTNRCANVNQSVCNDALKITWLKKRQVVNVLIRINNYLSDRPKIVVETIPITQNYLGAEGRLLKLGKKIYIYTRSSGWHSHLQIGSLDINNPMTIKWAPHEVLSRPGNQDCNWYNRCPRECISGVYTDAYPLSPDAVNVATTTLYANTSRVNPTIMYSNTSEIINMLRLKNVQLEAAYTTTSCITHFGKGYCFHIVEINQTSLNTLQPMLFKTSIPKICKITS


Tests used:
[1] = target: T1, hPIV-1 hemagglutinin-neuraminidase …; assay: flow cytometry on transfected HEK293T cells
[2] = target: T5, hPIV-3 fusion protein (F), expressed on transfected HEK293T cells (human parainfluenza virus 3 (hPIV-3), UniProt P06828 19-539); assay: flow cytometry on transfected HEK293T cells (FIG. 4)
T5 construct: whole, on cells

[3] = target: T2, hPIV-3 hemagglutinin-neuraminidase …
[4] = target: T3, D275N- and R277T-mutant hPIV-3 HN, …; assay: flow cytometry on transfected HEK293T cells (FIG. 11C)
[5] = target: HN of hPIV-3-GFP virus (on virions and on hPIV-3-infected cells) (human parainfluenza virus 3 (hPIV-3), UniProt P08492 1-572); assay: cell-based or functional assay
[6] = target: T6, recombinant hPIV-3 HN-dGCN4 (human parainfluenza virus 3 (hPIV-3), UniProt P08492 136-572); assay: ELISA, HN protein coated (50 ng), 1/3 dilution series (FIG. 18)
T6 construct: domain: head domain; also called hPIV-3 HN linked to dGCN4; not shown: strep-tag II

[7] = target: T7, recombinant hPIV-1 HN-dGCN4 (human parainfluenza virus 1 (hPIV-1), UniProt P16071 138-575); assay: as above
T7 construct: domain: head domain; also called hPIV-1 HN linked to dGCN4; not shown: strep-tag II

[8] = target: T8, recombinant hPIV-1 HN-tetraGCN4 (human parainfluenza virus 1 (hPIV-1), UniProt P16071 138-575); assay: as above
T8 construct: domain: head domain; also called hPIV-1 HN linked to tetraGCN4; not shown: strep-tag II

[9] = target: T2, hPIV-3 hemagglutinin-neuraminidase …; assay: flow cytometry on transfected HEK293T cells, 10 µg/ml (FIG. 16A)
[10] = target: T3, D275N- and R277T-mutant hPIV-3 HN, …; assay: flow cytometry on transfected HEK293T cells, VHH 1 or 0.1 µg/ml (FIG. 11C)
[11] = target: T4, HN of hPIV-1-GFP virus (on virions and …); assay: cell-based or functional assay

Binder	binding result [1]	binding result [2]	fold reduction of binding at 500 µg/ml of zanamivir [3] [fold]	binding result [4]	fold higher potency of hPIV-3-GFP neutralization than the monovalent counterpart [5] [fold]	EC50 [6] [µg/mL]	EC50 [7] [µg/mL]	EC50 [8] [µg/mL]	binding result [9]	binding result [10]	IC50 of neutralization of hPIV-1-GFP on Vero (E6) TMPRSS2 cells [11] [nM]
VHH A2R3-55 (VHH) VHH: QVQLQESGGGLVQAGGSLRLSCAASGSIDRIDAMGWSRQAPGKQRELVATITTGGITNYAVSVKGRFTISRDNAKNTVYLQMNSLKPEDTAVYYCNAQGAPSWGLYEDYWGQGTQVTVSS	no binding	no binding (tested: 1 µg/ml)	~5	no binding (tested: 1 or 0.1 µg/ml)							
bivalent VHH A2R3-60-60 (VHH, also called bivalent A2R3-60) QVQLQESGGGLVQPGGSLRLDCAASGTTVSINGMGWYRQAPGKQREFVALSTTGGVTNYADSVKGRFTISMDNAKKTVALQMNSLKPEDTAVYYCNAVASPSWGLYDDYWGQGTQVTVSSGGGGSGGGGSGGGGSQVQLQESGGGLVQPGGSLRLDCAASGTTVSINGMGWYRQAPGKQREFVALSTTGGVTNYADSVKGRFTISMDNAKKTVALQMNSLKPEDTAVYYCNAVASPSWGLYDDYWGQGTQVTVSS					~7.5	0.02	167	50	binds	binds	
bivalent VHH A2R3-59-59 (VHH, also called bivalent A2R3-59) QVQLQESGGGLVQPGGSLRLSCAASGSISGINGMGWYRQAPGKQRELVAAITSGGSTNYADSVKGRFTISRDNAKNTVDLQMNSLQPEDTAVYYCYVSSTPSWGLYDDYWGQGTQVTVSSGGGGSGGGGSGGGGSQVQLQESGGGLVQPGGSLRLSCAASGSISGINGMGWYRQAPGKQRELVAAITSGGSTNYADSVKGRFTISRDNAKNTVDLQMNSLQPEDTAVYYCYVSSTPSWGLYDDYWGQGTQVTVSS					~8				binds	binds	2.9
humanized A2R3-60-Fc construct version 1 (Fc fusion, also called A2R3-h60-Fc; h60-Fc) DVQLVESGGGLVQPGGSLRLSCAASGTTVSINGMGWYRQAPGKQREFVALSTTGGVTNYADSVKGRFTISRDNAKNTVYLQMNSLRPEDTAVYYCNAVASPSWGLYDDYWGQGTLVTVSSGGGGSGGGGSDKTHTCPPCPAPEAAGGPSVFLFPPKPKDTLMISRTPEVTCVVVDVSHEDPEVKFNWYVDGVEVHNAKTKPREEQYNSTYRVVSVLTVLHQDWLNGKEYKCKVSNKALGAPIEKTISKAKGQPREPQVYTLPPSRDELTKNQVSLTCLVKGFYPSDIAVEWESNGQPENNYKTTPPVLDSDGSFFLYSKLTVDKSRWQQGNVFSCSVMHEALHNHYTQKSLSLSPG						0.018	32	71	binds		
